Assay results: patent publication US12060433B2, “CD73 inhibitor and A2A/A2B adenosine receptor inhibitor combination therapy” (Incyte Corporation, priority 2020, dated 2024)

Target: T1, human CD73 (SEQ ID NO: 70) (Homo sapiens, UniProt P21589)
T1 construct: purchased BPS Bioscience
T1 sequence (P21589 27-549): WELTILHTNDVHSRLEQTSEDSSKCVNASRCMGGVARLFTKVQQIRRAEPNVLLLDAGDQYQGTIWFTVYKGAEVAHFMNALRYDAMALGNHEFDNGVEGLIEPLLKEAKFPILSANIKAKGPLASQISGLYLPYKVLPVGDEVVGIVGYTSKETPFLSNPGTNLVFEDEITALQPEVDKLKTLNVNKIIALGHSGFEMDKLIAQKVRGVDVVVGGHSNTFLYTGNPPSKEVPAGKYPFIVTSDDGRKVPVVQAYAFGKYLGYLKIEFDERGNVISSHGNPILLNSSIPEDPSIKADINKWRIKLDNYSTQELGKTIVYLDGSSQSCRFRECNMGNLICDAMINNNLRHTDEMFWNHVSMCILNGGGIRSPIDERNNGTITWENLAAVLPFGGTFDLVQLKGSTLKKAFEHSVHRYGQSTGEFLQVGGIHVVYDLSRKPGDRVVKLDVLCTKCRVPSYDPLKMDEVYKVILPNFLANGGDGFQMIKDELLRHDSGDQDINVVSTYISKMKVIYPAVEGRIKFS
Assay: SPR (Biacore 8K) binding affinity and kinetics to human CD73
Conditions: human CD73, open conformation, 25° C.
Experimental: The SPR running buffer (10 mM HEPES, 150 mM NaCl, 3 mM EDTA and 0.05% v/v Surfactant P20, pH 7.4) was prepared from 10×HBS-EP Buffer (GE Healthcare). Anti-human Fc antibodies (GE Healthcare) were immobilized via amine coupling on all sixteen flow cells of an S series sensor chip CM5 (GE Healthcare). The immobilization levels were ˜9000 RU for all flow cells. The desired capturing level of anti-CD73 antibody was achieved by flowing appropriate concentration of anti-CD73 antibody through the active flow cell of each channel. The non-cleavable ADP analogue APCP (adenosine-5′-(α,β-methylene) diphosphate) with the presence of Zn^2+ can be used to shift the CD73 conformational equilibrium from open towards closed. Therefore, recombinant CD73 was incubated with SPR running buffer in the presence of 100 μM APCP and 10 μM ZnCl2 (closed SPR running buffer) to study the binding of anti-CD73 antibody to the CD73 in the closed conformation. To achieve this, the ABA injection feature in Biacore 8K was used. For open conformation, the ABA injection sequence started with 60 seconds injection of running buffer. Then, CD73 3-fold serial dilution concentration series prepared from CD73 stock (BPS Bioscience) and running buffer were injected for 180 seconds immediately followed by running buffer for 240 seconds. For closed conformation, the normal SPR running buffer was replaced by closed SPR running buffer. Surface was regenerated with 30 seconds injection of 3 M MgCl2. […] Binding affinities and kinetic association and dissociation rate constants to human, cynomolgus, and mouse CD73 in either open or closed conformations are shown in Table 8 below. The results in Table 8 ensure cynomolgus pharmacokinetic data will reflect human pharmacokinetic data.
Binding affinities and kinetic association and dissociation rate constants to human, cynomolgus, and mouse CD73 in either open or closed conformations are shown in Table 9 below.

B1: CL25_hu_8-4: humanized CL25 antibody, VH and VL in FIG. 1B (antibody, V domains shown)
VH: QVQLVQSGAEVKKPGASVKVSCKASGYTFTSYGLSWVRQATGQGLEWMGEIYPGSGNTYYNEKFKGRVTMTRNTSISTAYMELSSLRSEDTAVYYCARYDYLGSSYGFDYWGAGTTVTVSS
VL: DIQMTQSPSSLSASVGDRVTITCKASQDVSTAVAWYQQKPGKAPKLLLYSASYRYSGVPSRFSGSGSGTDYTLTISSLQPEDFATYYCQQHYNTPYTFGGGTKLEIK
With B1 the ka was 770000 M⁻¹ s⁻¹ and the kd was 0.00176 s⁻¹.

B2: CL25_hu_10-6: humanized CL25 antibody, VH and VL in FIG. 1A (antibody, V domains shown)
VH: EVQLVQSGAEVKKPGESLKISCKGSGYTFTSYGLSWVRQMPGKGLEWMGEIYPGSGNTYYNEKFKGQVTISADKSISTAYLQWSSLKASDTAMYYCARYDYLGSSYGFDYWGAGTTVTVSS
VL: AIRMTQSPSSFSASTGDRVTITCKASQDVSTAVAWYQQKPGKAPKLLIYSASYRYSGVPSRFSGSGSGTDFTLTISCLQSEDFATYYCQQHYNTPYTFGGGTKLEIK
B2 gave a ka of 524000 M⁻¹ s⁻¹ and a kd of 0.00092 s⁻¹.

B3: CL25_hu_10-4: humanized CL25 antibody, VH and VL in FIG. 1A (antibody, V domains shown)
VH: EVQLVQSGAEVKKPGESLKISCKGSGYTFTSYGLSWVRQMPGKGLEWMGEIYPGSGNTYYNEKFKGQVTISADKSISTAYLQWSSLKASDTAMYYCARYDYLGSSYGFDYWGAGTTVTVSS
VL: DIQMTQSPSSLSASVGDRVTITCKASQDVSTAVAWYQQKPGKAPKLLLYSASYRYSGVPSRFSGSGSGTDYTLTISSLQPEDFATYYCQQHYNTPYTFGGGTKLEIK
For B3, the ka was 887000 M⁻¹ s⁻¹ and the kd was 0.00107 s⁻¹.

B4: CL25_hu_11-5: humanized CL25 antibody, VH and VL in FIG. 1B (antibody, V domains shown)
VH: QVQLVQSGAEVKKPGASVKVSCKASGYTFTSYGLSWVRQATGQGLEWMGEIYPGSGNTYYNEKFKGRVTMTANTSISTAYMELSSLRSEDTAVYYCARYDYLGSSYGFDYWGAGTTVTVSS
VL: DIVMTQSPDSLAVSLGERATINCKASQDVSTAVAWYQQKPGQPPKLLIYSASYRYSGVPDRFSGSGSGTDFTLTISSLQAEDVAVYYCQQHYNTPYTFGGGTKLEIK
For B4, the ka was 799000 M⁻¹ s⁻¹ and the kd was 0.00117 s⁻¹.

B5: CL25_hu_8-5: humanized CL25 antibody, VH and VL in FIG. 1B (antibody, V domains shown)
VH: QVQLVQSGAEVKKPGASVKVSCKASGYTFTSYGLSWVRQATGQGLEWMGEIYPGSGNTYYNEKFKGRVTMTRNTSISTAYMELSSLRSEDTAVYYCARYDYLGSSYGFDYWGAGTTVTVSS
VL: DIVMTQSPDSLAVSLGERATINCKASQDVSTAVAWYQQKPGQPPKLLIYSASYRYSGVPDRFSGSGSGTDFTLTISSLQAEDVAVYYCQQHYNTPYTFGGGTKLEIK
With B5 the ka was >1e+06 M⁻¹ s⁻¹ and the kd was 0.000949 s⁻¹.

B6: CL25_hu_9-4: humanized CL25 antibody, VH and VL in FIG. 1C (antibody, V domains shown)
VH: QVQLVQSGAEVKKPGSSVKVSCKASGYTFTSYGLSWVRQAPGQGLEWMGEIYPGSGNTYYNEKFKGRVTITADESTSTAYMELSSLRSEDTAVYYCARYDYLGSSYGFDYWGAGTTVTVSS
VL: DIQMTQSPSSLSASVGDRVTITCKASQDVSTAVAWYQQKPGKAPKLLLYSASYRYSGVPSRFSGSGSGTDYTLTISSLQPEDFATYYCQQHYNTPYTFGGGTKLEIK
B6 gave a ka of 382000 M⁻¹ s⁻¹ and a kd of 0.00264 s⁻¹.

B7: CL25_hu_9-5: humanized CL25 antibody, VH and VL in FIG. 1C (antibody, V domains shown)
VH: QVQLVQSGAEVKKPGSSVKVSCKASGYTFTSYGLSWVRQAPGQGLEWMGEIYPGSGNTYYNEKFKGRVTITADESTSTAYMELSSLRSEDTAVYYCARYDYLGSSYGFDYWGAGTTVTVSS
VL: DIVMTQSPDSLAVSLGERATINCKASQDVSTAVAWYQQKPGQPPKLLIYSASYRYSGVPDRFSGSGSGTDFTLTISSLQAEDVAVYYCQQHYNTPYTFGGGTKLEIK
B7 was tested, and the ka was 565000 M⁻¹ s⁻¹ and the kd was 0.00114 s⁻¹.

B8: CL25_hu_9-6: humanized CL25 antibody, VH and VL in FIG. 1C (antibody, V domains shown)
VH: QVQLVQSGAEVKKPGSSVKVSCKASGYTFTSYGLSWVRQAPGQGLEWMGEIYPGSGNTYYNEKFKGRVTITADESTSTAYMELSSLRSEDTAVYYCARYDYLGSSYGFDYWGAGTTVTVSS
VL: AIRMTQSPSSFSASTGDRVTITCKASQDVSTAVAWYQQKPGKAPKLLIYSASYRYSGVPSRFSGSGSGTDFTLTISCLQSEDFATYYCQQHYNTPYTFGGGTKLEIK
B8 gave a ka of 424000 M⁻¹ s⁻¹ and a kd of 0.000953 s⁻¹.

B9: CL25_hu_11-6: humanized CL25 antibody, VH and VL in FIG. 1B (antibody, V domains shown)
VH: QVQLVQSGAEVKKPGASVKVSCKASGYTFTSYGLSWVRQATGQGLEWMGEIYPGSGNTYYNEKFKGRVTMTANTSISTAYMELSSLRSEDTAVYYCARYDYLGSSYGFDYWGAGTTVTVSS
VL: AIRMTQSPSSFSASTGDRVTITCKASQDVSTAVAWYQQKPGKAPKLLIYSASYRYSGVPSRFSGSGSGTDFTLTISCLQSEDFATYYCQQHYNTPYTFGGGTKLEIK
With B9 the ka was 550000 M⁻¹ s⁻¹ and the kd was 0.00101 s⁻¹.

B10: CL25_hu_11-4: humanized CL25 antibody, VH and VL in FIG. 1A (antibody, V domains shown)
VH: QVQLVQSGAEVKKPGASVKVSCKASGYTFTSYGLSWVRQATGQGLEWMGEIYPGSGNTYYNEKFKGRVTMTANTSISTAYMELSSLRSEDTAVYYCARYDYLGSSYGFDYWGAGTTVTVSS
VL: DIQMTQSPSSLSASVGDRVTITCKASQDVSTAVAWYQQKPGKAPKLLLYSASYRYSGVPSRFSGSGSGTDYTLTISSLQPEDFATYYCQQHYNTPYTFGGGTKLEIK
Molecule B10 has a ka of 624000 M⁻¹ s⁻¹ and a kd of 0.00155 s⁻¹.

B11: CL25_hu_8-6: humanized CL25 antibody, VH and VL in FIG. 1C (antibody, V domains shown)
VH: QVQLVQSGAEVKKPGASVKVSCKASGYTFTSYGLSWVRQATGQGLEWMGEIYPGSGNTYYNEKFKGRVTMTRNTSISTAYMELSSLRSEDTAVYYCARYDYLGSSYGFDYWGAGTTVTVSS
VL: AIRMTQSPSSFSASTGDRVTITCKASQDVSTAVAWYQQKPGKAPKLLIYSASYRYSGVPSRFSGSGSGTDFTLTISCLQSEDFATYYCQQHYNTPYTFGGGTKLEIK
Molecule B11 has a ka of 715000 M⁻¹ s⁻¹ and a kd of 0.00111 s⁻¹.
